Measured values published in IntAct's records for PubMed 20007317.

B1: SAGA complex subunit SGF11 (Saccharomyces cerevisiae), Q03067 (parent)
chain: MTEETITIDSISNGILNNLLTTLIQDIVARETTQQQLLKTRYPDLRSYYFDPNGSLDINGLQKQQESSQYIHCENCGRDVSANRLAAHLQRCLSRGARR
partner: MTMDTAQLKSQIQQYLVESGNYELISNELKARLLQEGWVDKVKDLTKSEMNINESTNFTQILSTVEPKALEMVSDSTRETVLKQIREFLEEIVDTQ

Variants of: B1
Conditions: with sus1_yeast SUS1, Q6WNK7
In the case of MTEETITIDSISNGILNALLTTLIQDIVARETTQQQLLKTRYPDLRSYYFDPNGSLDINGLQKQQESSQYIHCENCGRDVSANRLAAHLQRCLSRGARR [N18A], the “effect of a mutation on the interaction” value is reported as “decreasing interaction”.
MTEETITIDSISNGALNNLLTTLIQDIVARETTQQQLLKTRYPDLRSYYFDPNGSLDINGLQKQQESSQYIHCENCGRDVSANRLAAHLQRCLSRGARR [I15A] was tested, and the “effect of a mutation on the interaction” value was “decreasing interaction”.
For MTEETITIDSISNGILNNALTTLIQDIVARETTQQQLLKTRYPDLRSYYFDPNGSLDINGLQKQQESSQYIHCENCGRDVSANRLAAHLQRCLSRGARR [L19A], the “effect of a mutation on the interaction” value was “decreasing interaction”.
